We go through seven molecules from patent US20160297884A1.

In test [1] the target is B-cell maturation antigen (BCMA) (human) (UniProt Q02223). In words: cell-based or functional assay.
In test [2] the target is BCMA expressed on MM1S cells (human) (UniProt Q02223). Put plainly: cell-based or functional assay.
Chain of BCMA expressed on MM1S cells (human) (Q02223 whole entry): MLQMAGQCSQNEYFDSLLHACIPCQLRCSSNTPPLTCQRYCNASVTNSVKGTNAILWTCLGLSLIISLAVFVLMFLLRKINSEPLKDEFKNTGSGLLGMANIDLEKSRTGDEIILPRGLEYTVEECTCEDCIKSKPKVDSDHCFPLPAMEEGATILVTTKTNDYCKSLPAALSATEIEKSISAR

Chain of B-cell maturation antigen (BCMA) (human) (Q02223 whole entry): as above

B1: P5AC1-V1 (protein)
chain: EVQLLESGGGLVQPGGSLRLSCAASGFTFSSYAMNWVRQAPGKGLEWVSAILSSGGSTYYADSVKGRFTISRDNSKNTLYLQMNSLRAEDTAVYYCARYWPMDIWGQGTLVTVSSGGGGSGGGGSGGGGSEIVLTQSPGTLSLSPGERATLSCRGGQSVSSSYLAWYQQKPGQAPRLLMYDASIRATGIPDRFSGSGSGTDFTLTISRLEPEDFAVYYCQQYQSWPLTFGQGTKVEIKGLAVSTISSFFPPGYQIYIWAPLAGTCGVLLLSLVITLYCKRGRKKLLYIFKQPFMRPVQTTQEEDGCSCRFPEEEEGGCELRVKFSRSADAPAYQQGQNQLYNELNLGRREEYDVLDKRRGRDPEMGGKPRRKNPQEGLYNELQKDKMAEAYSEIGMKGERRRGKGHDGLYQGLSTATKDTYDALHMQALPPR
In test [1], B1 gave a % CD107a+ (in CD8+) (degranulation, MM1S cells, Donor 2) of 68.6% and an MFI CD107a+ (degranulation, MM1S cells, Donor 2) of 2190 MFI.

B2: P6AP-V1 (protein)
chain: EVQLLESGGGLVQPGGSLRLSCAASGFTFGSYAMTWVRQAPGKGLEWVSAISGSGGNTFYADSVKGRFTISRDNSKNTLYLQMNSLRAEDTAVYYCARVSPIAAPMDYWGQGTLVTVSSGGGGSGGGGSGGGGSEIVLTQSPGTLSLSPGERATLSCRASQLGSFYLAWYQQKPGQAPRLLIYGASSRATGIPDRFSGSGSGTDFTLTISRLEPEDFAVYYCQHYNYPPSFTFGQGTKVEIKGLAVSTISSFFPPGYQIYIWAPLAGTCGVLLLSLVITLYCKRGRKKLLYIFKQPFMRPVQTTQEEDGCSCRFPEEEEGGCELRVKFSRSADAPAYQQGQNQLYNELNLGRREEYDVLDKRRGRDPEMGGKPRRKNPQEGLYNELQKDKMAEAYSEIGMKGERRRGKGHDGLYQGLSTATKDTYDALHMQALPPR
For the molecule B2, in test [2], the % CD107a+ (in CD8+) (degranulation, Donor 1, co-culture with MM1S) was 46.4% and the MFI CD107a+ (degranulation, CD8+ T cells, Donor 1, co-culture with MM1S) amounted to 1850 MFI.

B3: COM22-V1 (protein)
chain: EVQLLESGGGLVQPGGSLRLSCAASGFTFSSYAMNWVRQAPGKGLEWVSAISDSGGSRWYADSVKGRFTISRDNSKNTLYLQMNSLRAEDTAVYYCTRYWPMDIWGQGTLVTVSSGGGGSGGGGSGGGGSEIVLTQSPGTLSLSPGERATLSCRASVRVSSTYLAWYQQKPGQAPRLLMYDASIRATGIPDRFSGSGSGTDFTLTISRLEPEDFAVYYCQQYMKWPLTFGQGTKVEIKGLAVSTISSFFPPGYQIYIWAPLAGTCGVLLLSLVITLYCKRGRKKLLYIFKQPFMRPVQTTQEEDGCSCRFPEEEEGGCELRVKFSRSADAPAYQQGQNQLYNELNLGRREEYDVLDKRRGRDPEMGGKPRRKNPQEGLYNELQKDKMAEAYSEIGMKGERRRGKGHDGLYQGLSTATKDTYDALHMQALPPR
In test [1], B3 gave a % CD107a+ (in CD8+) (degranulation, MM1S cells, Donor 3) of 76.1% and an MFI CD107a+ (degranulation, MM1S cells, Donor 3) of 2220 MFI.

B4: P5A-V1 (protein)
chain: EVQLLESGGGLVQPGGSLRLSCAASGFTFSSYAMNWVRQAPGKGLEWVSAISDSGGSTYYADSVKGRFTISRDNSKNTLYLQMNSLRAEDTAVYYCARYWPMDIWGQGTLVTVSSGGGGSGGGGSGGGGSEIVLTQSPGTLSLSPGERATLSCRASQSVSSSYLAWYQQKPGQAPRLLMYDASIRATGIPDRFSGSGSGTDFTLTISRLEPEDFAVYYCQQYGSWPLTFGQGTKVEIKGLAVSTISSFFPPGYQIYIWAPLAGTCGVLLLSLVITLYCKRGRKKLLYIFKQPFMRPVQTTQEEDGCSCRFPEEEEGGCELRVKFSRSADAPAYQQGQNQLYNELNLGRREEYDVLDKRRGRDPEMGGKPRRKNPQEGLYNELQKDKMAEAYSEIGMKGERRRGKGHDGLYQGLSTATKDTYDALHMQALPPR
In test [1], B4 returned a % CD107a+ (in CD8+) (degranulation, MM1S cells, Donor 2) of 77.6% and an MFI CD107a+ (degranulation, MM1S cells, Donor 2) of 2670 MFI.

B5: P5AC16-V1 (protein)
chain: EVQLLESGGGLVQPGGSLRLSCAASGFTFSSYAMNWVRQAPGKGLEWVSAISDFGGSTYYADSVKGRFTISRDNSKNTLYLQMNSLRAEDTAVYYCARYWPMDIWGQGTLVTVSSGGGGSGGGGSGGGGSEIVLTQSPGTLSLSPGERATLSCRASQSVSDLYLAWYQQKPGQAPRLLMYDASIRATGIPDRFSGSGSGTDFTLTISRLEPEDFAVYYCQQYQTWPLTFGQGTKVEIKGLAVSTISSFFPPGYQIYIWAPLAGTCGVLLLSLVITLYCKRGRKKLLYIFKQPFMRPVQTTQEEDGCSCRFPEEEEGGCELRVKFSRSADAPAYQQGQNQLYNELNLGRREEYDVLDKRRGRDPEMGGKPRRKNPQEGLYNELQKDKMAEAYSEIGMKGERRRGKGHDGLYQGLSTATKDTYDALHMQALPPR
Take B5: in test [1], the % CD107a+ (in CD8+) (degranulation, MM1S cells, Donor 2) was 61.6% and the MFI CD107a+ (degranulation, MM1S cells, Donor 2) amounted to 1860 MFI.

B6: PC1C12-V1 (protein)
chain: EVQLLESGGGLVQPGGSLRLSCAASGFTFSSYPMSWVRQAPGKGLEWVSAIGGSGGWSYYADSVKGRFTISRDNSKNTLYLQMNSLRAEDTAVYYCARYWPMDSWGQGTLVTVSSGGGGSGGGGSGGGGSEIVLTQSPGTLSLSPGERATLSCWLSQSVSSTYLAWYQQKPGQAPRLLIYDASSRAPGIPDRFSGSGSGTDFTLTISRLEPEDFAVYYCQQYSEWPLTFGQGTKVEIKGLAVSTISSFFPPGYQIYIWAPLAGTCGVLLLSLVITLYCKRGRKKLLYIFKQPFMRPVQTTQEEDGCSCRFPEEEEGGCELRVKFSRSADAPAYQQGQNQLYNELNLGRREEYDVLDKRRGRDPEMGGKPRRKNPQEGLYNELQKDKMAEAYSEIGMKGERRRGKGHDGLYQGLSTATKDTYDALHMQALPPR
On to B6, for which, in test [1], the % CD107a+ (in CD8+) (degranulation, MM1S cells, Donor 3) was found to be 68.2% and the MFI CD107a+ (degranulation, MM1S cells, Donor 3) amounted to 1960 MFI.

B7: PC1-V1 (protein)
chain: EVQLLESGGGLVQPGGSLRLSCAASGFTFSSYPMSWVRQAPGKGLEWVSAIGGSGGSTYYADSVKGRFTISRDNSKNTLYLQMNSLRAEDTAVYYCARYWPMDSWGQGTLVTVSSGGGGSGGGGSGGGGSEIVLTQSPGTLSLSPGERATLSCRASQSVSSTYLAWYQQKPGQAPRLLIYDASSRAPGIPDRFSGSGSGTDFTLTISRLEPEDFAVYYCQQYSTSPLTFGQGTKVEIKGLAVSTISSFFPPGYQIYIWAPLAGTCGVLLLSLVITLYCKRGRKKLLYIFKQPFMRPVQTTQEEDGCSCRFPEEEEGGCELRVKFSRSADAPAYQQGQNQLYNELNLGRREEYDVLDKRRGRDPEMGGKPRRKNPQEGLYNELQKDKMAEAYSEIGMKGERRRGKGHDGLYQGLSTATKDTYDALHMQALPPR
For the molecule B7, in test [1], the % CD107a+ (in CD8+) (degranulation, MM1S cells, Donor 3) came to 75.6% and the MFI CD107a+ (degranulation, MM1S cells, Donor 3) came to 2180 MFI.
